According to patent KR20230139570A (dated 2023):

Assays:
[1] = target: CD47 on CD47-overexpressing breast cancer cell line MCF-7 (UniProt Q08722); experiment: flow cytometry on MCF-7 cells, secondary antibody alone (background control)
[2] = target: CD47 단백질 (Acrobiosystems, cat# CD7-HA2E9) (UniProt Q08722); experiment: ELISA, CD47 protein coated, negative control
[3] = target: CD47 단백질 (Acrobiosystems, cat# CD7-HA2E9) (UniProt Q08722); experiment: ELISA, CD47 protein coated, same method as Example 2-1
[4] = target: 인간 CD47 단백질 (Human CD47, SPR analyte) (human, UniProt Q08722 19-139, limits assumed); experiment: SPR, Biacore 8K, antibody captured, human CD47 as analyte
Chain of 인간 CD47 단백질 (Human CD47, SPR analyte) (Q08722 19-139 limits assumed): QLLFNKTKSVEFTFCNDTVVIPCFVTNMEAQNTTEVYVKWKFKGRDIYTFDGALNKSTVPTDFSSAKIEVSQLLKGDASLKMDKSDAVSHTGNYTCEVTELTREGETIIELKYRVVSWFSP

Kd [4] [nM] | koff [4] [s⁻¹] | kon [4] [M⁻¹ s⁻¹] | Molecule | further results
 |  |  | PE-conjugated goat anti-mouse IgG (Biolegend Inc., cat# 405307) (antibody) | Mean (fluorescence) [1]: 80; Median (fluorescence) [1]: 73.9
 |  |  | 음성대조군 (negative control of the Hu3A5V10 ELISA) | OD450 [2]: 0.0431 OD450
 |  |  | Hu3A5V10 항체 (humanized 3A5 antibody, as tested in Example 4) (antibody, V domains shown) VH: EVQLVQSGSELKKPGASVKVSCKASGYTFTSYWMHWMRQAPGQGLEWIGVIDPSDSYTSYNQGFTGRFVLSVDTSVSTAYLQISSLKAEDTAVYYCARGGKRAMDYWGQGTTVTVSS VL: DVVMTQSPLSLPVTLGQPASISCRSSQSLVHSNGNTYLHWFQQRPGQSPRLLIYKVSNRFSGVPDRFSGSGSGTDFTLKISRVEAEDVGVYYCSQSTHVPFTFGGGTKLEIK | OD450 [3]: 2.81 OD450
0.208 | 0.000458 | 2.21e+06 | AHF16310 전장 항체 (full length antibody, IgG4) (antibody, V domains shown, also called AHF16310 항체) VH: EVQLVQSGSELKKPGASVKVSCKASGYTFTSYWMHWMRQAPGQGLEWIGVIDPNDSYTSYNQGFTGRFVLSVDTSVSTAYLQISSLKAEDTAVYYCARGGKRMMDYWGQGTTVTVSS VL: DVVMTQSPLSLPVTLGQPASISCRSSQSLVHSNGNTYLHWFQQRPGQSPRLLIYKVSNRFTGVPDRFSGSGSGTDFTLKISRVEAEDVGVYYCSQSTHVPFTFGGGTKLEIKR | 
0.312 | 0.000865 | 2.78e+06 | AHF16309 전장 항체 (full length antibody, IgG4) (antibody, V domains shown, also called AHF16309 항체) VH: EVQLVQSGSELKKPGASVKVSCKASGYTFTSYWMHWMRQAPGQGLEWIGVIDPNDSYTSYNQGFTGRFVLSVDTSVSTAYLQISSLKAEDTAVYYCARGGKRMMDYWGQGTTVTVSS VL: DVVMTQSPLSLPVTLGQPASISCRSSQSLVHSNGNTYLNWFQQRPGQSPRLLIYKVSNRFPGVPDRFSGSGSGTDFTLKISRVEAEDVGVYYCSQSTHVPFTFGGGTKLEIKR | 
0.166 | 0.000307 | 1.85e+06 | AHF16312 전장 항체 (full length antibody, IgG4) (antibody, V domains shown, also called AHF16312 항체) VH: EVQLVQSGSELKKPGASVKVSCKASGYTFTSYWMHWMRQAPGQGLEWIGVIDPNDSYTSYNQGFTGRFVLSVDTSVSTAYLQISSLKAEDTAVYYCARGGKRIMDYWGQGTTVTVSS VL: DVVMTQSPLSLPVTLGQPASISCRSSQSLVHSNGNTYLNWFQQRPGQSPRLLIYKVSNRFTGVPDRFSGSGSGTDFTLKISRVEAEDVGVYYCSQSTHVPFTFGGGTKLEIKR | 
0.465 | 0.000467 | 1e+06 | Hu3A5V10 전장 항체 (full length antibody, IgG4) (antibody, V domains shown, also called U822EGG010-Hu3A5V10) VH: EVQLVQSGSELKKPGASVKVSCKASGYTFTSYWMHWMRQAPGQGLEWIGVIDPSDSYTSYNQGFTGRFVLSVDTSVSTAYLQISSLKAEDTAVYYCARGGKRAMDYWGQGTTVTVSS VL: DVVMTQSPLSLPVTLGQPASISCRSSQSLVHSNGNTYLHWFQQRPGQSPRLLIYKVSNRFSGVPDRFSGSGSGTDFTLKISRVEAEDVGVYYCSQSTHVPFTFGGGTKLEIKR | 
